Paper PMC6648332 (Nucleic Acids Research, 2019)

Target: the molecule itself
Test: SEC

B1: 3′-5′ exonuclease domain of human EXD2 (residues 76−295, EXD2-exo) (domain or fragment, UniProt Q9NVH0 76-295, looked up)
chain: KAKVVTVSQEAEWDQIEPLLRSELEDFPVLGIDCEWVNLEGKASPLSLLQMASPSGLCVLVRLPKLICGGKTLPRTLLDILADGTILKVGVGCSEDASKLLQDYGLVVRGCLDLRYLAMRQRNNLLCNGLSLKSLAETVLNFPLDKSLLLRCSNWDAETLTEDQVIYAARDAQISVALFLHLLGYPFSRNSPGEKNDDHSSWRKVLEKCQGVVDIPFRSK
  stoichiometry N: 2
